The values below come from patent publication US12083113B2, “Use of neuronal nitric oxide synthase inhibitors for immunotherapy in melanoma patients” (Northwestern University, priority 2018, dated 2024).

Assay [1] has as its system A375 melanoma cells. Description: Adhesion of melanoma cells to fibroblast monolayer. Format: cell-based, human. The following applies: incubated 1 hour, MTT assay. How it is done:
FIG. 1. A) Effect of IFN-γ on melanoma invasion potential detected by matrigel invasion assay. The represented data were from A375 metastatic melanoma cells treated with IFN-γ. *, p<0.05 compared to control. B) Adhesion analysis. A375 melanoma cells were seeded on top of fibroblast monolayer and incubated with IFN-γ for 1 hour, followed by MTT assay. *, p<0.05 compared to control.
(Tetrazolium dyes change colour on reduction, which living cells bring about.)

The subject of assay [2] is nNOS expression in WM3211 cells. Put plainly: Western blot of nNOS expression in primary melanoma WM3211 cells. The class given is cell-based, human. The following applies: IFN-γ persisted after 96 hours, IFN-α within 4 hours, recovered by 24 hours. How it is done:
(§1) FIG. 2. A-C) Effects of IFN-α and IFN-γ treatment on nNOS expression levels in human primary melanoma WM3211 cells (A-B) and metastatic melanoma A375 cells. C) Distinct effects of IFN-α and IFN-γ on nNOS expression of A375 metastatic melanoma cells. A375 cells were treated with 500 units/mL of IFN-α or IFN-γ for 48 hours and whole cell lysates were collected. Samples were subjected to Western blot analysis for nNOS. A control of the protein loading was performed by detecting actin. D) Intracellular nitric oxide levels detected by microplate reader using DAF-FM fluorescence probe after IFN-α or IFN-γ treatment for 24 hours. E) IFN-γ-inducible nNOS expression was abrogated in nNOS-depleted melanoma cells. A375 cells transfected with shRNA-nNOS were treated with IFN-γ for 24 hours, followed by Western blot analysis.
Protein isolation and Western blotting. All samples were kept at 4° C. unless otherwise noted. […]
Equal amounts of protein, as detected by Bradford assay, were loaded and resolved on 7.5% SDS-polyacrylamide gels, then transferred to Immobilon-P^SQ polyvinylidene difluoride (PVDF) membranes (ISEQ00010; Merck KGaA, Darmstadt, Germany). […] Labeled bands were detected using SuperSignal horseradish peroxidase chemiluminescence reagents (1859674; 1859675; Thermo Fisher Scientific, Waltham, MA) and images were captured and analyzed using the Bio-Rad ChemiDoc XRS^+ System.

Assay [3] concerns intracellular NO in melanoma cells. Put plainly: Intracellular nitric oxide levels, DAF-FM fluorescence probe. The class given is cell-based, human. The settings on record: DAF-FM probe after interferon exposure. As for the experimental part: as §1
Detection of intracellular nitric oxide levels. Cultured cells in a 96-well plate were treated with 100 units/mL of IFN-α or IFN-γ for 48 hours. Once the incubation period was complete, the media was removed and replaced with Hank's Balanced Salt Solution (HBSS). 1 μM of 4-Amino-5-methylamino-2′,7′-difluorofluorescein (DAF-FM) probe was added to each condition and fluorescence levels produced by DAF-FM were detected using a fluorescence microplate reader with excitation and emission wavelengths of 485 and 538 nm, respectively.

Assay [4] has as its system WM115, Sk-mel-28 and A375. Put plainly: Reverse Phase Protein Array in three human melanoma cell lines. Format: cell-based. The following applies: 250 units/mL interferon. How it is done: FIG. 4. A) Heat map of Reverse Phase Protein Array (RPPA) showing distinct effects of IFN-α and IFN-γ on protein expression levels in three human melanoma cell lines (WM115, Sk-mel-28 and A375). Three melanoma cell lines were treated with 250 units/mL of interferons for 48 hours. Whole cell lysates were collected and subjected to RPPA assay. […] Red, high expression; green, low expression. All the data points were normalized for protein loading and transformed to linear value. […] Average changes of three cell lines detected by RPPA were shown in the figure. *, p<0.05 in comparison to control and IFN-α. C-E) Induction of PD-L1 by IFN-γ was diminished by the co-treatment of nNOS inhibitors. […]. Cell surface expression of PD-L1 was determined by flow cytometry. Representative histograms out of two independent experimental replicates are shown. C) IFN-α or IFN-γ (100 Units/ml); D-E) IFN-α or IFN-γ (250 Units/ml).
Reverse Phase Protein Array. Plated cells were treated with 250 units/mL of IFN-α or IFN-γ for […]. After washing with 1×PBS, lysis buffer (1% Triton X-100, 50 mM HEPES, pH 7.4, 150 mM NaCl, 1.5 mM MgCl2, 1 mM EGTA, 100 mM NaF, 10 mM Na pyrophosphate, 1 mM Na3VO4, 10% glycerol and 1% PIC) was added to the plates, followed by incubation on ice for 20 minutes with occasional shaking. Samples were then collected via scraping and spun down at 14,000 g^−1 for 10 minutes at 4° C. The protein concentration was then quantified by Bradford method and adjusted to 1.5 μg/μL with lysis buffer. Cell lysates were then mixed with 4×SDS sample buffer (40% glycerol, 8% SDS, 0.25M Tris-HCl, pH 6.8 with 10% BME). Miniscule amounts of serially diluted protein samples were then dotted on a nitrocellulose coated slide and probed with validated primary antibodies and a biotin-conjugated secondary antibody. The signals were amplified using Dako-Cytomation-Catalyzed system (Dako) and visualized by diaminobenzidine (DAB) colorimetric reaction. Dilution curves were fitted with Supercurve Fitting and the protein expressions normalized for protein loading.

The test system of assay [5] is Human A375 metastatic melanoma xenograft. Put plainly: A375 melanoma xenograft, IFN-γ with or without MAC-3-190. Format: in vivo, nude mice. How it is done:
FIG. 6. […] Data was represented as mean±SD.
FIG. 7. Expression of PD-L1 in xenograft tumor samples obtained from the subject is administered an inhibitor of NOS and further is administered study detected by immunohistochemistry staining. PD-L1 staining (brown) of specimens at 100× (A) and 20× (B) magnification. […] . PD-L1 (C) and CD8 (D) stained specimens captured at 2× magnification.
In Vivo Xenograft Melanoma. […] .

A value given as a limit tells only on which side of the number the result lay.

B1: IFN-γ: Interferon-gamma, purchased from Invitrogen (protein, UniProt P01579 24-161, looked up)
Interferon gamma: QDPYVKEAENLKKYFNAGHSDVADNGTLFLGILKNWKEESDRKIMQSQIVSFYFKLFKNFKDDQSIQKSVETIKEDMNVKFFNSNKKKRDDFEKLTNYSVTDLNVQRKAIHELIQVMAELSPAAKTGKRKRSQMLFRG
As for B1, the “adhesion capacity of melanoma cells to fibroblast cells” value in assay [1] is “significantly enhanced”. The nNOS expression levels result in assay [2] was “markedly induced”. Also, the “intracellular NO levels” value in assay [3] is reported as “elevated”. The “c-Myc and HIF-1α expression levels (RPPA)” value in assay [4] is reported as “Increased”. For the same molecule, the “PD-L1 expression level (RPPA)” value in assay [4] (average of three cell lines) was 1.8 fold of control. Also, in assay [5] (21-day treatment, IFN-γ 1000 units per mouse i.p. daily, with or without MAC-3-190 5 mg/kg/day), the “PD-L1-positive staining in xenograft tumors (immunohistochemistry)” value is given as over 20%. Further, in assay [5] (IFN-γ 1000 units/day, 21 days), the “tumor growth in vivo” value is recorded as “significantly stimulated”.
